Measured values published in publication PMC4188072, “Structure of a short-chain dehydrogenase/reductase (SDR) within a genomic island from a clinical strain of Acinetobacter baumannii” (Acta Crystallographica. Section F, Structural Biology …, 2014).

Molecular target: the molecule itself
Assay: SEC; Superdex G200 10/300 column, 50 mM HEPES buffer pH 7.5, 300 mM NaCl, 5% (v/v) glycerol; native mass 120 kDa against a 30 kDa band on SDS-PAGE

B1: SDR-WM99c short-chain dehydrogenase/reductase from Acinetobacter baumannii WM99c (enzyme, A. baumannii (strain WM99c))
chain: MNIFDVKDKYILITGASSGLGHHIAELFAKEGANIVICARRLERLKELESHIKNEYGVQVYTFALDVNDRSAVKDMLSSLEAEGVTIDVLINNAGVSDTKRFLDYNDEDWDKIVDTNLKAPWQCAQEVVQHMIKAERKGSIINITSILSQSTNLGVSPYCASKAGLRHLTEVMAVELARFGINVNAIAPGYMITEINEEYLTSEVGQQLLKKIPTRKFVEFDDLNGPLLLLASQAGQGITGIEIKVDGGHSAAPI
modifications: selenomethionine (cells grown in selenomethionine medium; Se sites located in the crystal)
notes: SDR-WM99c, hypothetical protein encoded in genomic island GI_12 of A. baumannii strain WM99c; total chain length 255 residues; also called SDR-WM99c dehydrogenase; source: E. coli BL21 (DE3) pLysS, grown in selenomethionine medium, purified (Ni-NTA); not shown: His6, N-terminal, kept
  stoichiometry N: 4
